Read-outs that look alike come from different tables or passages of the source.
Experiments:
[1] = target: T1, cynomolgus PD-L1/137-H1 protein (Acro Biosystems, cat. No. PD1-052H4-100) (cynomolgus, UniProt G7PSE7 19-239); assay: BLI (Octet HTX), average of 3 experiments
T1 construct: also called cynomolgus PD-L1 (BLI)
Procedure: (§1) In a first set of experiments, affinities for recombinant-expressed human PD-L1 protein were determined using Bio-layer interferometry (BLI) on an Octet HTX instrument (ForteBio). Anti-Human IgG Fc Capture (AHC) biosensors (ForteBio) were loaded for 900 s with antibodies (1 μg/ml). […] The experiment was carried out while shaking at 1000 rpm at 30° C. Data was analyzed with Data Analysis Software v9.0.0.12 (ForteBio) using the 1:1 model and a global full fit with 1000 s association time and 200 or 1000 s dissociation time. Data traces were corrected by subtraction of a buffer reference, the Y-axis was aligned to the last 10 s of the baseline, and interstep correction as well as Savitzky-Golay filtering was applied. Data traces with a response <0.05 nm were excluded from analysis. As default, the fit using 1000 s dissociation time was used.
The experimental set-up was as described above, with the exception of [0466] Loading time of AHC biosensors with antibodies was 600 s; [0467] Baseline was 300 s; [0468]

PDLoneECDHisCtag [2] = target: T2, PDLoneECDHisCtag (human, UniProt Q9NZQ7 19-238); assay: BLI (Octet HTX), average of 3 experiments; antibody on AHC sensor, PDLoneECD-HisCtag as analyte
T2 construct: Expressed in HEK-293F cells; theoretical molecular weight 29 kDa; also called recombinant human PD-L1 ECD; human PD-L1 (BLI); not shown: C-terminal His-tag; C-tag
T2 sequence (Q9NZQ7 19-238, form in doubt): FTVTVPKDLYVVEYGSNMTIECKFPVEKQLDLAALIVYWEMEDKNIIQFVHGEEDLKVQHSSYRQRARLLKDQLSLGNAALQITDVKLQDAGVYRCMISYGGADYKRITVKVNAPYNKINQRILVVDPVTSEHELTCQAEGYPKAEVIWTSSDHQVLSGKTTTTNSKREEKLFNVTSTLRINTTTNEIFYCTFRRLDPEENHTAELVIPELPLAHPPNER
Procedure: as §1

PDLoneECDHisCtag [3] = target: T2, PDLoneECDHisCtag; assay: BLI cross-block, second antibody on PDLoneECDHisCtag held by immobilised 547; bold = blocking
Procedure: (§2) Antibody cross-block testing was performed using biolayer interferometry (BLI) on an Octet HTX instrument (ForteBio). Antibodies (20 μg/ml in 10 mM sodium acetate buffer pH 6.0 (ForteBio)) were immobilized on Amine-Reactive 2nd Generation (AR2G) biosensors (ForteBio) according to the instructions of the manufacturer. After a baseline (50 s) in Sample Diluent (ForteBio), biosensors containing immobilized antibodies were loaded for 500 s with PDLoneECDHisCtag (100 nM or 2.7 μg/ml), after which the association response of a second antibody (10 μg/ml) was followed for 500 s. Biosensors were regenerated by using 3 times 5 s alternating exposures to 10 mM glycine pH 2.5 and Sample Diluent. The experiment was repeated with a new set of second antibodies starting from the baseline step. Each biosensor was used 6 times. The experiment was performed at 30° C. using a shaker speed of 1000 rpm. Data was analyzed using Data Analysis Software v9.0.0.12 (ForteBio). The Y-axis was aligned to the association step and Savitzky-Golay filtering was applied. The average buffer response was subtracted from the association response of the second antibody in order to correct for the dissociation of PDLoneECDHisCtag from the immobilized antibody. The corrected association responses were plotted in a matrix format.

PDLoneECDHisCtag [4] = target: T2, PDLoneECDHisCtag; assay: BLI cross-block, second antibody on PDLoneECDHisCtag held by immobilised 511-LC33S; plain = non-blocking
Procedure: as §2

PDLoneECDHisCtag [5] = target: T2, PDLoneECDHisCtag; assay: BLI cross-block, second antibody on PDLoneECDHisCtag held by immobilised 632; plain = non-blocking
Procedure: as §2

[6] = target: T3, cynomolgus monkey PD-L1 (full length, on CHO cells) (cynomolgus monkey (Macaca fascicularis), UniProt G7PSE7 19-290); assay: flow cytometry on CHO cells transfected with cynomolgus PD-L1, PE anti-human IgG secondary, MFI (PE)
T3 construct: whole, on cells; also called PDL1 Mf; cynomolgus PD-L1
T3 sequence (G7PSE7 entry or part of it): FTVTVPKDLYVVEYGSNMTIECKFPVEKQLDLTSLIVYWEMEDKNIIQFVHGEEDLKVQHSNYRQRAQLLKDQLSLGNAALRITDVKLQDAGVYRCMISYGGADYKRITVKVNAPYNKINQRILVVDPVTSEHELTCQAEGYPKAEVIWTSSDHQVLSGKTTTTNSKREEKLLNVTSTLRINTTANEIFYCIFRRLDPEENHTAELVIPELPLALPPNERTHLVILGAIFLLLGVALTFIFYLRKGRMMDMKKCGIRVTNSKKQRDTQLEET
Procedure: (§3) Cells (3-5×10⁴ cells/well) were incubated in polystyrene 96-well round-bottom plates (Greiner bio-one, cat. no. 650101) with serial dilutions of antibodies (range 0.0001 to 10 μg/mL in 5-fold dilution steps) in 50 μL PBS/0.1% BSA/0.02% azide (staining buffer) at 4° C. for 30 min.
(§4) After washing twice in staining buffer, cells were incubated in 50 μL secondary antibody at 4° C. for 30 min. As a secondary antibody, R-Phycoerythrin (PE)-conjugated goat-anti-human IgG F(ab′)₂ (Cat. no. 109-116-098, Jackson ImmunoResearch Laboratories, Inc., West Grove, Pa.) diluted 1:500 in staining buffer, was used for all experiments. Next, cells were washed twice in staining buffer, re-suspended in 20 μL staining buffer and analyzed on an iQue screener (Intellicyt Corporation, USA). Binding curves were analyzed using non-linear regression (sigmoidal dose-response with variable slope) using GraphPad Prism V75.04 software (GraphPad Software, San Diego, Calif., USA).
(§5) Binding to CHO cells expressing cynomolgus PD-L1 was determined by flow cytometry using a method as described above.

PDLoneECDHisCtag [7] = target: T2, PDLoneECDHisCtag; assay: BLI (Octet HTX); antibody on anti-human IgG Fc capture sensor, PDLoneECDHisCtag as analyte; 1:1 global fit
Procedure: as §1

PDLoneECDHisCtag [8] = target: T2, PDLoneECDHisCtag; assay: BLI cross-block, second antibody on PDLoneECDHisCtag held by immobilised 421-LC91S; bold = blocking
Procedure: as §2

[9] = target: T4, human PD-L1 (full length, on cells) (human, UniProt Q9NZQ7 19-290); assay: flow cytometry on SK-MES-1 cells, PE anti-human IgG secondary, MFI (PE)
T4 construct: The entry holds the signal peptide; also called CD274; B7H1
T4 sequence (Q9NZQ7 19-290 limits assumed): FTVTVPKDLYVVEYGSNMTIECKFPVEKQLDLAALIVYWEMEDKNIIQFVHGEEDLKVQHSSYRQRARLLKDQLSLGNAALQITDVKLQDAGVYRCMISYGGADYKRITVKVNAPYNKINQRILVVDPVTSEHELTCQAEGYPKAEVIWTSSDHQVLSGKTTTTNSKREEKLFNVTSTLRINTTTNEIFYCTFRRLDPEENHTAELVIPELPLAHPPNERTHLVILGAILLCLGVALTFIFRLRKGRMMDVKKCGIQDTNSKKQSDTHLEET
Procedure: as §3, §4

[10] = target: T3, cynomolgus monkey PD-L1 (full length, …); assay: flow cytometry on CHO cells transfected with cynomolgus PD-L1, PE anti-human IgG secondary, MFI (PE); remark: listed apart in the source
Procedure: as §3, §4, §5

PDLoneECDHisCtag [11] = target: T2, PDLoneECDHisCtag; assay: BLI cross-block, second antibody on PDLoneECDHisCtag held by immobilised 511-LC33S; bold = blocking
Procedure: as §2

[12] = target: T4, human PD-L1 (full length, on cells); assay: cell-based or functional assay

T1 sequence (G7PSE7 entry or part of it): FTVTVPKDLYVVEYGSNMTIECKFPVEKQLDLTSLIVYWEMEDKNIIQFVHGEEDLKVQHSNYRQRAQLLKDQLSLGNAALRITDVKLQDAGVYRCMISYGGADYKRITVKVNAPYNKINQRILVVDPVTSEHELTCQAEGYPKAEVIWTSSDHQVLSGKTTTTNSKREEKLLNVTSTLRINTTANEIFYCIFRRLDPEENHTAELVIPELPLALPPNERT

Fold difference of KD (cynomolgus against human PD-L1) [1]	Kd (PDLoneECDHisCtag [2])	koff (PDLoneECDHisCtag [2])	kon (PDLoneECDHisCtag [2])	association response of the second antibody (PDLoneECDHisCtag [3])	association response of the second antibody (PDLoneECDHisCtag [4])	association response of the second antibody (PDLoneECDHisCtag [5])	EC50 (read off the curve) [6]	Kd (PDLoneECDHisCtag [7])	koff (PDLoneECDHisCtag [7])	kon (PDLoneECDHisCtag [7])	association response of the second antibody (PDLoneECDHisCtag [8])	EC50 (read off the curve) [9]	EC50 (read off the curve) [10]	association response of the second antibody (PDLoneECDHisCtag [11])	EC50 (read off the curve) [12]	Binder
2.3 fold	0.12 nM	0.00011 s⁻¹	970000 M⁻¹ s⁻¹	0 nm	0.6 nm	0.6 nm	~0.05 µg/mL	0.029 nM	3.6e-05 s⁻¹	1.2e+06 M⁻¹ s⁻¹	0 nm	~0.2 µg/mL				IgG1-547-FEAR (antibody, V domains shown) VH: EVQLLEPGGGLVQPGGSLRLSCEASGSTFSTYAMSWVRQAPGKGLEWVSGFSGSGGFTFYADSVRGRFTISRDSSKNTLFLQMSSLRAEDTAVYYCAIPARGYNYGSFQHWGQGTLVTVSS VL: SYVLTQPPSVSVAPGQTARITCGGNNIGSKSVHWYQQKPGQAPVLVVYDDNDRPSGLPERFSGSNSGNTATLTISRVEAGDEADYYCQVWDSSSDHVVFGGGTKLTVLG
2.3 fold	5.1 nM	0.0048 s⁻¹	960000 M⁻¹ s⁻¹									~0.2 µg/mL	~0.08 µg/mL	0 nm	~0.05 µg/mL	IgG1-511-LC33S-FEAR (antibody, V domains shown) VH: QVQLVQSGSELKKPGASVMVSCKASGYTFTSYVMNWVRQAPGQGLEWMGWINSYTGNPTSAQGFTGRFVFSFDTSVNTAYLQISSLKAEDTAVYYCARGYCTSTSCYLDYWGQGTLVTVSS VL: SYELTQPPSVSVSPGHTARITCSGDALPKKYASWFQQKSGQAPVLVIYEDSKRPSGIPERFSGSTSGTMATLTISGAQVEDETDYYCYSADTSGTHRVFGGGTKLTVLG
2.3 fold	0.31 nM	0.00025 s⁻¹	800000 M⁻¹ s⁻¹	0 nm		0.6 nm		0.088 nM	6.4e-05 s⁻¹	730000 M⁻¹ s⁻¹	-0.1 nm	~0.1 µg/mL		0 nm		IgG1-338-FEAR (antibody, V domains shown) VH: EVQVVESGGGLVQPGGSLRLSCAASGFTFSRFWMSWVRQAPGKGLEWVANIKQDGGEKYYVDSVKGRFTISRDNAKNSLYLQMNSLRGEDTAVYYCARDDNWNGHFDYWGQGTLVTVSS VL: DIQMTQSPSTLSASVGDRVTITCRASQSISSWLAWYQQKPGKAPNLLIYKASSLESGVPSRFSGSGSGTEFTLTISSLQPDDFATYYCQQYYGSYITFGQGTRLEIKR
